Measured values published in patent US6645733B1, “Fluorescent intensity method for assaying binding between proteins or peptides” (Ingeneus Corporation, priority 1999, dated 2003).
No end group written: not given here.

Target: T1, human AT1 receptor (Homo sapiens, UniProt P30556)
T1 construct: purchased NEN Life Science Products Inc., Boston, Mass; host or cells: Chinese hamster ovary (CHO) cells, purified membrane preparation
T1 sequence (P30556 1-359): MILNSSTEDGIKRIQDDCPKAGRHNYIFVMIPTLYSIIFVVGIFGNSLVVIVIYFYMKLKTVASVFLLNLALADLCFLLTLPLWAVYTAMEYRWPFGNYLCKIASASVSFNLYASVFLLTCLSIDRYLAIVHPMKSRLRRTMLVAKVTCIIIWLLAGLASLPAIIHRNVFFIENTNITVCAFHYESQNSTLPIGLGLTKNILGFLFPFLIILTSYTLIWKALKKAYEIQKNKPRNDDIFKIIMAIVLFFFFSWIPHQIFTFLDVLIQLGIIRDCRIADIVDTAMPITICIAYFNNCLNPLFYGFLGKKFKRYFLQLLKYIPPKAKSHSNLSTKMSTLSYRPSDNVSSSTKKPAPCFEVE
Assay: Competition binding experiment: displacement of wildtype Flu-AII from AT1 receptor by unlabeled ligand
Details: all twelve concentrations 1 nM to 300 μM, 10 nM Flu-AII, 0.02 units AT1 receptor (data not shown)

## MLGFFQQPKPR [substance P]
  displacement of Flu-AII binding to AT1 receptor: unable to displace
